# Measured values published in patent US20050080234A1 (Takeda / Millennium, published 2005).
# Substitutions are numbered along the chain they refer to. Read-outs that look alike come from different tables or passages of the source.
# T1: wild-type mouse C140 receptor (mouse, UniProt P55086 32-399)
# T1 sequence: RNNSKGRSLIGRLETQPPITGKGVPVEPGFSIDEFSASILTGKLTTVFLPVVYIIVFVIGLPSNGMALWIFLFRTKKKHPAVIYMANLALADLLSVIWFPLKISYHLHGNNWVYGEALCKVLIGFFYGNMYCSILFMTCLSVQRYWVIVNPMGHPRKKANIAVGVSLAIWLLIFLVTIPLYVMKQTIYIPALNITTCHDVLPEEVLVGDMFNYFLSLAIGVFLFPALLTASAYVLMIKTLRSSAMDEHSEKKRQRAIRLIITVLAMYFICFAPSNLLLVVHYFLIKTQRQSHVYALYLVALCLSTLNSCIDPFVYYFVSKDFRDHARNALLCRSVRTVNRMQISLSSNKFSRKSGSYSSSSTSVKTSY
# T2: mouse C140 receptor mutant 35Pro (mouse, UniProt P55086 32-399)
# T2 sequence: T1 sequence with S8P
# T3: mouse C140 receptor mutant 35His (mouse, UniProt P55086 32-399)
# T3 sequence: T1 sequence with S8H
# T4: mouse C140 receptor mutant 35Arg (mouse, UniProt P55086 32-399)
# T4 sequence: T1 sequence with S8R
# B1: peptide SLAGRL (peptide)
# peptide: SLAGRL
# B2: peptide SAIGRL (peptide)
# peptide: SAIGRL
# B3: peptide SLIGRA (peptide)
# peptide: SLIGRA
# B4: peptide SLIGAL (peptide)
# peptide: SLIGAL
# B5: peptide ALIGRL (peptide)
# peptide: ALIGRL
# B6: agonist peptide SLIGRL (peptide)
# peptide: SLIGRL
# B7: peptide SLIARL (peptide)
# peptide: SLIARL
# B8: thrombin receptor agonist SFFLRW (peptide)
# peptide: SFFLRW
# Experiments:
# Assay in all cases: cell-based or functional assay
# [1] = target: T1, wild-type mouse C140 receptor
# [2] = target: T2, mouse C140 receptor mutant 35Pro
# [3] = target: T3, mouse C140 receptor mutant 35His
# [4] = target: T4, mouse C140 receptor mutant 35Arg
# [5] = target: T1, wild-type mouse C140 receptor; remark: listed apart in the source
# [6] = target: T1, wild-type mouse C140 receptor; remark: listed apart in the source
Molecule,Fold Increase in 45Ca [5] [fold],also measured
trypsin (enzyme),,Fold increase in 45Ca [1]: 6.6 fold; Fold increase in 45Ca [2]: 0 fold; Fold increase in 45Ca [3]: 0 fold; Fold increase in 45Ca [4]: 0 fold
B1,0,
B2,0,
B3,8.5,
B4,0,
B5,1.3,
B6,15,Fold Increase in 45Ca [6]: 11 fold; Fold Increase in 45Ca [2]: 23 fold; Fold Increase in 45Ca [3]: 23 fold; Fold Increase in 45Ca [4]: 15 fold
B7,4.3,
B8,1.7,
